Columns and labels:
[1] = system: plasmablasts in peripheral blood; test: Phase 1 study in healthy subjects (AB79-101): plasmablast levels; format: in vivo, human; settings: SC
Method: (§1) In a phase 1 study in healthy subjects (Study AB79-101), AB79 reduced the levels of peripheral blood and natural killer (NK) cells >90% from baseline in all subjects receiving a single 0.06 mg/kg IV dose of AB79, with a maximum observed concentration (Cmax) of 0.1 μg/mL. (U.S. Pat. No. 8,362,211; U.S. International Patent Application Serial Nos. PCT/US2019/013547 and PCT/US2019/024431). […] Potent reduction of plasmablasts was observed across cohorts of patients in the RRMM trial (Study AB79-1501). […] Consequently, AB79 may be more efficient at eliminating cells expressing high levels of CD38, which could manifest as higher activity on tumor cells (e.g., improved and deeper response rates across a population of patients with myeloma).
(§2) AB79 IV reduced the levels of peripheral blood NK cells >90% from baseline levels in all subjects receiving a single 0.06 mg/kg IV dose, with a Cmax of 0.1 μg/mL. […] As a potent and convenient second-generation anti-CD38 mAb, AB79 SC warranted therapeutic development for the treatment of multiple myeloma (MM).

[2] = Phase 1 study in healthy subjects (AB79-101): safety; format: in vivo, human
Method: as §1, §2

human CD38 = human CD38 (Homo sapiens, UniProt P28907); test: Biacore affinity to human CD38; format: binding
Source text: Other Morphosys antibodies targeting CD38 are known (see, e.g., WO 2006/125640, which discloses four human antibodies: MOR03077, MOR03079, MOR03080, and MOR03100 and two murine antibodies: OKT10 and IB4). […] Moreover, the prior art antibodies have poor ADCC as well as CDC activity.

[3] = AB79-1002 phase 1b study, AB79 with LenDex or VRd in NDMM: safety; format: in vivo
Source text: This is a Phase 1b, open-label, multicenter study to evaluate the safety, efficacy, tolerability, and pharmacokinetics (PK) of AB79 when added to 1 of 2 standard backbone regimens (lenalidomide plus dexamethasone [LenDex] or bortezomib [Velcade] plus lenalidomide and dexamethasone [VRd]) in adult patients with newly diagnosed multiple myeloma (NDMM) for whom stem cell transplantation (SCT) is not planned as initial therapy. The dose and schedule for the backbone regimens (LenDex and VRd) are given in accordance with product labeling or standard medical practice. Treatment cycles are 28 days until disease progression (PD) or unacceptable toxicity occurs. Treatment may be discontinued for other reasons listed below. AB79 is supplied by the sponsor. Bortezomib, dexamethasone, and lenalidomide are standard-of-care agents that are supplied from commercial sources.
300 mg of AB79 is administered subcutaneously once weekly for 8 weeks (8 doses), once every 2 weeks for 16 weeks (8 doses), and once every 4 weeks thereafter until PD (in combination with backbone therapy). Backbone therapies (LenDex or VRd) are dosed in accordance with product labeling/local institutional practices. VRd is given with bortezomib weekly×3 weeks and LenDex in a standard 28 day cycle. Patients are evaluated from first dose of AB79 until 30 days after PD or until protocol-defined treatment discontinuation criteria are met.
Changes in clinical laboratory parameters (standard hematology and chemistry), vital sign, electrocardiogram (ECG) monitoring, and Eastern Cooperative Oncology Group (ECOG) performance status that are judged by the investigator as clinically significant are recorded both on the source documentation and in the electronic case report (eCRF) as an AE. Toxicities that occur during the DLT evaluation period are used for the purposes of defining DLT and for subsequent cohort expansion or dose modification decisions. DLTs are based on AB79-related toxicities.
The study was designed to determine the recommended phase 2 dose (RP2D) and to provide a preliminary assessment of the AB79 combinations against NDMM. Parameters such as safety, tolerability, pharmacokinetics (PK), pharmacodynamics (PD), and disease response were assessed.

[4] = AB79-1501 study, AB79 plus PomDex combination cohort in RRMM: safety; format: in vivo
Source text: This is a multicenter, dose-escalation, open-label, single-arm, Phase 1/2a study designed to determine the safety, tolerability, efficacy, PK, and immunogenicity of AB79 monotherapy in patients with RRMM, and to provide a preliminary assessment of its activity against MM.
The phase 1 portion of the study evaluates administration of single agent AB79 for dose-limiting toxicity (DLT) to determine the MTD or the RP2D for further assessment in phase 2a. A recommended dose below the MTD is identified based on the review of safety, PK, PD (e.g., CD38 occupancy), and clinical data from the phase 1 portion of the study. The safety and tolerability of AB79 is assessed by recording and analyzing TEAEs, dose modifications, treatment discontinuations, vital signs, physical examinations, serum chemistry and hematology, urinalysis, ECGs, and concomitant medications. In phase 1, approximately 6 doses of AB79 are evaluated in ascending cohorts of 3 to 6 patients per cohort. Cohorts may be expanded by enrolling additional patients to further inform selection of the RP2D before enrolling in the Phase 2a portion of the study. In the phase 2a portion of this study, Grade 4 or higher nonhematologic toxicity is monitored starting from the first 10 enrolled patients and then every 10 patients thereafter. Additionally, a cohort of patients receive AB79 combined with the backbone regimen of pomalidomide and dexamethasone (PomDex) in patients with RRMM who have received at least 2 prior therapies and are refractory to the last therapy before study entry.
The study provides a Confirmation Cohort and a Combination Cohort. Each Cohort is administered a dose of 300 mg AB79 subcutaneously weekly for 8 weeks during Cycles 1 and 2 (8 doses), every other week during Cycles 3 to 6 for 16 weeks (8 doses), and then once every 4 weeks until PD in subsequent cycles. Safety and available efficacy, PK, and pharmacodynamics are reviewed at least after 6 patients in each subgroup have received 1 cycle of therapy, then on an ongoing basis. […] The Combination Cohort also receives pomalidomide and dexamethasone (PomDex), and given according to product labeling (Pomalyst USPI). […] In the Combination Cohort, up to 6 patients are initially enrolled and safety in Cycle 1 reviewed. […] If 2 of 6 patients develop DLTs, an additional cohort of 6 patients is tested at a de-escalated dose; an intermediate or more conservative dose schedule may also be implemented as a means to provide an overall lower dose. A lower dose of pomalidomide is also considered based on available safety data. […] If 2 of 6 patients develop DLTs at the lower dose, this cohort is stopped for further evaluation.

[5] = AB79 300 or 600 mg with LenDex or VRd, 10 patients enrolled
[6] = AB79 plus PomDex, RRMM, 5 patients treated

**Q.** What does the source list for “AB79: anti-CD38 monoclonal IgG1 antibody; heavy chain SEQ ID NO:11, light chain SEQ ID NO:12”?
**A.** reduction of levels of circulating plasmablasts in peripheral blood [1]: dose-dependent manner; serious adverse events (SAEs) ([2]; 74 healthy subjects, single IV or SC dose escalation): no serious adverse events; neutrophil, lymphocyte, monocyte, RBC and platelet counts ([2]; healthy subjects, all dose cohorts): remained within normal ranges; Kd (human CD38): 5.4 nM; TEAE regardless of causality: abdominal pain [3, 5]: 2 patients; TEAE regardless of causality: chills [3, 5]: 2 patients; TEAE regardless of causality: decreased lymphocyte count [3, 5]: 5 patients; TEAE regardless of causality: diarrhea [3, 5]: 3 patients; TEAE regardless of causality: dysgeusia [3, 5]: 2 patients; TEAE regardless of causality: fatigue [3, 5]: 2 patients; TEAE regardless of causality: muscle spasms [3, 5]: 2 patients; TEAE regardless of causality: nausea [3, 5]: 2 patients; TEAE regardless of causality: neutropenia [3, 5]: 2 patients; TEAE regardless of causality: peripheral edema [3, 5]: 2 patients; TEAE regardless of causality: sinusitis [3, 5]: 2 patients; dose-limiting toxicities (DLTs) ([3]; AB79 with LenDex or VRd): No DLTs; drug-related serious AEs, AEs that resulted in any drug discontinuation, or on-study deaths ([3]; AB79 with LenDex or VRd): no; number of DLTs (neutropenia) ([4]; AB79 plus PomDex cohort): 1 DLT; drug-related SAEs or AEs leading to study drug discontinuation, or on-study deaths ([4]; AB79 plus PomDex combination): No; systemic reactions ([4]; AB79 plus PomDex combination): no systemic reactions; TEAE regardless of causality: cough [4, 6]: 2 patients; TEAE regardless of causality: neutropenia [4, 6]: 2 patients
